From the supplement of paper PMC12764529
± gives the half width of the 95% confidence interval.

Key:
[1] = folding stability dG unfold from trypsin proteolysis; higher = more stable
Summary of the method: (§1)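 How resistant each design was to proteolysis was captured as K50, inferred by Bayesian fitting of sequencing counts. Unfolding free energy was then derived relative to a sequence-predicted unfolded-state K50 and a shared folded-state K50, per protease or combined. Digestion used trypsin and chymotrypsin at 11 threefold-diluted concentrations plus a no-protease condition, on mini-proteins under 80 residues without cysteine in a PA-tagged cDNA display construct. Designs were kept only when AlphaFold2 dimer inter-PAE was above 15.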

[2] = folding stability dG unfold from chymotrypsin proteolysis; higher = more stable
Summary of the method: as §1

[3] = folding stability dG unfold (combined trypsin and chymotrypsin); higher = more stable
Summary of the method: as §1

| Sequence | folding stability dG unfold [1] | folding stability dG unfold [2] | folding stability dG unfold [3] |
| --- | --- | --- | --- |
| SAGGSAGGMIPLEEIEIEEITEETLPSNEKVITVKVKFPDGTKTLTFEPNEGEEKILEKIKELTSAGGSAGG [r6_233_JUSTAS] | 2.28 ± 0.176 kJ/mol | 3.04 ± 0.142 kJ/mol | 3.07 ± 0.343 kJ/mol |
| SAGPNFKIEIVPNPNGMEPIATIRPPGRTIVIYRNSNGGYHVQRFDPNNGKPVKQFNMPAEEIIKEILSAGG [r19_188_TrROS] | 1.45 ± 0.418 kJ/mol | 2.74 ± 1.42 kJ/mol | 2.31 ± 0.795 kJ/mol |
| SAGGGMTTTTVTVTLDVPPDAGEEEVERLAEEIAAELKAAHPNITVTVEKITIDEKNATFTITVTTPGSAGG [r13_805_JUSTAS] | 13.4 ± 0.402 kJ/mol | 12.25 ± 0.121 kJ/mol | 12.7 ± 0.243 kJ/mol |
| SAGGSAGGSAIKAPPNSKIIKIEVKPLPNGDLLVEITIIDVPPDDSIGSGKYKILIKLEKGGSAGGSAGGSA [r18_273_TrMRF] | 11.7 ± 1.26 kJ/mol | 13 ± 0.669 kJ/mol | 12.7 ± 1.09 kJ/mol |
| SAPPIEELSEEEIKKLVEEELKKKGISPENVKIEITIEKPPGPEYRVKVKVTYKKNKNYLEFEFEFELPSAG [r14_703_JUSTAS] | 9.77 ± 0.837 kJ/mol | 17.7 ± 0.711 kJ/mol | 16.6 ± 1.38 kJ/mol |
| SAGGMTFETETITLEFPPEDEEEIRKRAEEIAEKLKKEYEKKGYKVEVEFSYDPETGVLTITIKFEKKSAGG [r13_755_JUSTAS] | 14.9 ± 0.795 kJ/mol | 17.5 ± 0.28 kJ/mol | 16.7 ± 0.46 kJ/mol |
| SAGGSAGGSAKSFWIDSPEQAEELADELQQKGPNVEPTVERDDNNGWYQLEIPNGKDIVIWGSAGGSAGGSA [r18_154_TrROS] | -1.75 ± 0.837 kJ/mol | 3.05 ± 0.795 kJ/mol | 1.14 ± 1 kJ/mol |
| SAGGSSSASNISTNPTPLPEESVTVTASSDGVITVTITDPNGVPTTYTYNIPSGSIEEAIAEAISSSAGGSA [r2_298_JUSTAS] | 7.79 ± 0.247 kJ/mol | 8.62 ± 0.377 kJ/mol | 8.26 ± 0.393 kJ/mol |
| SAGSPSMVVTVRLTVTTTDPVTGTTTTTTLDIPVSPASLSTPPAQVAAALTAAAPATTIDVTVDSVLLSAGG [r19_189_JUSTAS] | 7.508 ± 0.0711 kJ/mol | 4.41 ± 0.251 kJ/mol | 6.33 ± 0.155 kJ/mol |
| SAGPTVRIHLPGFEPIRFPPGDELALPFPNGYYLIIRRKPDGEVEVFPMGGEERKLPDADEVEIYMFPASAG [r5_869_TrROS] | 2.78 ± 0.46 kJ/mol | 5.54 ± 0.628 kJ/mol | 4.47 ± 0.544 kJ/mol |
| SAGKKIKIVKVEVTYDPETKEVTVKITIYNENGEKIKEIELTYEPGMSEEEVREKAEALVRKLIEEGKLSAG [r5_238_TrROS_Hall] | 11.5 ± 0.628 kJ/mol | 9.37 ± 0.209 kJ/mol | 10.6 ± 0.418 kJ/mol |
| SAPKIKEIKEFDPETKKILIKVETPEGEKEIPIPAGGNMTVEEAIEKVKEFLEKELPEGVELEVEEITISAG [r14_422_TrMRF] | 2.07 ± 0.502 kJ/mol | 5.65 ± 0.418 kJ/mol | 4.19 ± 0.711 kJ/mol |
| SAGGSAGGSAGGSMPEGTVLSVDPSTGLKVVYFPGENKLVFEEISPSNELVKRSEFPLSSAGGSAGGSAGGS [r4_192_JUSTAS] | -0.487 ± 0.586 kJ/mol | 1.82 ± 0.305 kJ/mol | 0.626 ± 0.544 kJ/mol |
| SAGGSAGGSAGGPKYKIEIEIKKIKVKVEKTVKYDGKTYKEEKEFEVLEIKIKIEPEGESAGGSAGGSAGGS [r10_118_TrROS_Hall] | 13.3 ± 1.51 kJ/mol | 18 ± 0.879 kJ/mol | 17 ± 1.21 kJ/mol |
| SAGGMLLVEAPDGTTVEVTPEQAADLTPGAVVRHPSGDVWTYNPANDETVRIPWVSPAEVERAVAELSSAGG [r13_962_JUSTAS] | -0.408 ± 0.159 kJ/mol | -1.51 ± 0.502 kJ/mol | -0.553 ± 0.18 kJ/mol |
| SAGGSAMPVVEIEIEVSEEEAEELVKKLKELFPEVEEVEVERTEDGLRIRVRVKLPPLTEEELKAKSAGGSA [r15_166_TrROS_Hall] | 4.88 ± 0.109 kJ/mol | 4.13 ± 0.176 kJ/mol | 4.35 ± 0.226 kJ/mol |
| SAGGSALKNSTLRITVERGNVPFTVEVKLKSVVVDLESGKVDVELPEEFKKLFKGPVKILSLEIPDSAGGSA [r15_710_TrMRF] | 3.7 ± 0.238 kJ/mol | 7.62 ± 0.46 kJ/mol | 6.41 ± 0.711 kJ/mol |
| SAGGSAGGSMEIVVPVKNPEELKAVAEELEKKGYKVEKLPDGSLKVEKPGSVIYIKGDPVPPLSAGGSAGGS [r12_204_JUSTAS] | 6.34 ± 0.31 kJ/mol | 6.23 ± 0.251 kJ/mol | 6.08 ± 0.586 kJ/mol |
| SAGGSAGGSAGGIPPDVKVKPVATVNLTAEVEVTVLGPEGGPTFTVKVEVKVVFAESTDSAGGSAGGSAGGS [r10_758_TrMRF] | 6.3 ± 1.55 kJ/mol | 10.7 ± 1 kJ/mol | 8.82 ± 1.09 kJ/mol |
| SAGIEEVAKEIAETLEELLPSEYKILDAKAIPLPDDVVIVPITVQKFDPNGKPLGELQFVVVIPPGEASAGG [r19_28_TrMRF] | 2.67 ± 0.285 kJ/mol | 2.17 ± 0.402 kJ/mol | 2.66 ± 0.259 kJ/mol |
| SAGGSMTLTIEVDGKTVEITEVREKEDGEKVVRIRVTTPDGEEKEIEMTLDELAEILGLSKEELEPSAGGSA [r2_262_TrROS_Hall] | 15.7 ± 0.795 kJ/mol | 11.2 ± 0.356 kJ/mol | 13.7 ± 0.753 kJ/mol |
